Measurements as given in paper PMC3472039 (Journal of molecular biology, 2012).
Square brackets hold non-standard residues; d marks the D form. Ends that are not written are not given here. SeMet = C[Se]CC[C@H](N)C(=O)O

Molecular target: the molecule itself
Assay: crystal structure

B1: SeMet-QkI-Qua1(14-67) C35S (domain or fragment, UniProt Q9QYS9 14-67, looked up)
chain: TPDYL[SeMet]QL[SeMet]NDKKL[SeMet]SSLPNFSGIFNHLERLLDEEISRVRKD[SeMet]YNDTLNGSTEK
- stoichiometry N: 2
